Laboratory results reported in paper PMC3734299, “Farnesyl Phosphatase, a Corpora allata Enzyme Involved in Juvenile Hormone Biosynthesis in Aedes aegypti” (PLoS ONE, 2013).
Values belong to the molecule of their own block, whether it stands above or below them.

Key:
[1] = molecular target: T1, AaFPPase-2 (Aedes aegypti, UniProt Q0IF21); test: p-NPP phosphatase assay, inhibition; assay type: biochemical; conditions: inhibitor 0 to 40 µM, 10 min pre-incubation
T1 construct: gene 5568744; His-tagged, expressed in E. coli, purified on HiTrap chelating and PD-10 columns, ~35 kDa
T1 sequence (Q0IF21 1-315): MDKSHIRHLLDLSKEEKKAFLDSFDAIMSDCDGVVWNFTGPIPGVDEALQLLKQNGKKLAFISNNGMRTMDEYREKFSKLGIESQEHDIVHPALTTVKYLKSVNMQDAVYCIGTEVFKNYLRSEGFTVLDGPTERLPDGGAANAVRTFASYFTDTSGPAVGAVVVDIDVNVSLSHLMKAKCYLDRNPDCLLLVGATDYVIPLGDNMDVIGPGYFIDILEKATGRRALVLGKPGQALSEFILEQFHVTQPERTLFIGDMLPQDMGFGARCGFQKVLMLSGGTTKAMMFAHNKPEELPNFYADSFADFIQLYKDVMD

[2] = tested on: T2, AaFPPase-1; test: malachite green phosphate release; assay type: biochemical, Aedes aegypti; conditions: 100 mM MES pH 6.0, 2 mM MgCl2, 37 °C; read-out: Km μM ±SE
T2 construct: His-tagged, expressed in E. coli, purified on HiTrap chelating and PD-10 columns, ~35 kDa
Excerpt: malachite green phosphate release on AaFPPase-1

[3] = tested on: T2, AaFPPase-1; test: p-NPP phosphatase assay, 96-well plate; assay type: biochemical, Aedes aegypti; conditions: Mg2+ cofactor; optimum pH 6.0
[4] = molecular target: T1, AaFPPase-2; test: malachite green phosphate release; assay type: biochemical; conditions: 100 mM MES pH 6.0, 2 mM MgCl2, 37 °C; read-out: Km μM ±SE
[5] = substrate: CC(C)=CCC/C(C)=C/CC/C(C)=C/CO[P@@](=O)(O)OP(=O)(O)O; test: malachite green phosphate release; assay type: biochemical, Aedes aegypti; conditions: 100 mM MES pH 6.0, 2 mM MgCl2, 37 °C
[6] = substrate: CC(C)=CCC/C(C)=C/COP(=O)(O)OP(=O)(O)O; test: malachite green phosphate release; assay type: biochemical, Aedes aegypti; conditions: 100 mM MES pH 6.0, 2 mM MgCl2, 37 °C
[7] = substrate: O=[N+]([O-])c1ccc(OP(=O)(O)O)cc1; test: p-NPP phosphatase assay, 96-well plate; assay type: biochemical, Aedes aegypti; conditions: Mg2+ cofactor, optimum pH 6.0

Molecule: CC(=O)N[C@@H](CSC/C=C(\C)CC/C=C(\C)CC/C=C(\C)CCC=C(C)C)C(=O)O [AGGC]
inhibition [1]: AGGC was a potent inhibitor of AaFPPase-1 and AaFPPase-2 (Figure S3)

Molecule: CC(C)=CCC/C(C)=C/CC/C(C)=C/COP(=O)(O)OP(=O)(O)O [FPP]
Km [2]: 222 ± 11 µM

Molecule: CC(C)=CCC/C(C)=C/COP(=O)(O)OP(=O)(O)O [GPP]
Km [2]: 184 ± 14.2 µM

B1: AaFPPase-2 (Aedes aegypti) (protein)
chain: MDKSHIRHLLDLSKEEKKAFLDSFDAIMSDCDGVVWNFTGPIPGVDEALQLLKQNGKKLAFISNNGMRTMDEYREKFSKLGIESQEHDIVHPALTTVKYLKSVNMQDAVYCIGTEVFKNYLRSEGFTVLDGPTERLPDGGAANAVRTFASYFTDTSGPAVGAVVVDIDVNVSLSHLMKAKCYLDRNPDCLLLVGATDYVIPLGDNMDVIGPGYFIDILEKATGRRALVLGKPGQALSEFILEQFHVTQPERTLFIGDMLPQDMGFGARCGFQKVLMLSGGTTKAMMFAHNKPEELPNFYADSFADFIQLYKDVMD
notes: His-tagged, expressed in E. coli, purified on HiTrap chelating and PD-10 columns, ~35 kDa
Km [5]: 221.02 ± 15.62 µM
Vmax [5]: 5.77 µmol/min/mg
kcat [5]: 2.98 s⁻¹
kcat/Km [5]: 13200 M⁻¹ s⁻¹
Km [6]: 273.98 ± 2.52 µM
Vmax [6]: 28.3 µmol/min/mg
kcat [6]: 17.5 s⁻¹
kcat/Km [6]: 63000 M⁻¹ s⁻¹
Km [7]: 315.5 ± 46.9 µM

Further lines, results first:

Km [3]: 3960 ± 127 µM
Molecule: O=[N+]([O-])c1ccc(OP(=O)(O)O)cc1 [p-NPP]

Km [2]: > 900 µM
Km [4]: > 900 µM
Molecule: C=C(C)CCO[P@@](=O)(O)OP(=O)(O)O [IPP]
